Assay [1] has as its target T1, human NMUR2 (human, UniProt Q9GZQ4 1-415). The assay is described as follows: cell-based or functional assay.
Assay [2] deals with T2, human NMUR1 (human, UniProt Q9HB89 1-426).
T2 sequence (looked up): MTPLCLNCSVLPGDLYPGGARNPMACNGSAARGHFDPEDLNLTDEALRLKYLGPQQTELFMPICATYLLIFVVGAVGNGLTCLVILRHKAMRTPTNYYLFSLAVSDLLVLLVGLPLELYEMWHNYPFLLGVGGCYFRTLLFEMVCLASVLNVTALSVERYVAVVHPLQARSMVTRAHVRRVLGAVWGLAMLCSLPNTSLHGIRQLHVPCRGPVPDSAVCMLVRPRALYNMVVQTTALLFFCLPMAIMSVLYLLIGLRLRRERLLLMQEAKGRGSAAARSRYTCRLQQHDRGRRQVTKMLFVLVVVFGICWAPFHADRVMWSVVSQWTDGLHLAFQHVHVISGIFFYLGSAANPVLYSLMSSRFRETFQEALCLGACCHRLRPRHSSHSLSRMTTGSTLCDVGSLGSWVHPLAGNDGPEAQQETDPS
Description: cell-based or functional assay.

The target of assay [3] is T3, rat NMUR1-TTG (rat, UniProt Q9JJI5 1-425).
T3 sequence (looked up): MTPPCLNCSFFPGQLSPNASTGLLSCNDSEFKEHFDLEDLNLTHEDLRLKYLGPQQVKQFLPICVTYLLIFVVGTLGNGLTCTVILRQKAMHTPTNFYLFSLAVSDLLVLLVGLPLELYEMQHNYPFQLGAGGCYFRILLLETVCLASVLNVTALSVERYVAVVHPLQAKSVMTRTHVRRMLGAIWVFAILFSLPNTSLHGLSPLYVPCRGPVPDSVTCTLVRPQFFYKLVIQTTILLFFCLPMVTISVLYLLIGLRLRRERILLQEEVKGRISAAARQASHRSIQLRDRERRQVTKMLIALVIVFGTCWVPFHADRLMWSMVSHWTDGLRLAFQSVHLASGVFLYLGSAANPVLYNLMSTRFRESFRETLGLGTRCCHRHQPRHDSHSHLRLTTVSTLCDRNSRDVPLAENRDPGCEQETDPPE
Description: cell-based or functional assay.

The target in assay [4] is T4, mouse NMUR1-ATG (mouse, UniProt O55040 1-428).
T4 sequence (looked up): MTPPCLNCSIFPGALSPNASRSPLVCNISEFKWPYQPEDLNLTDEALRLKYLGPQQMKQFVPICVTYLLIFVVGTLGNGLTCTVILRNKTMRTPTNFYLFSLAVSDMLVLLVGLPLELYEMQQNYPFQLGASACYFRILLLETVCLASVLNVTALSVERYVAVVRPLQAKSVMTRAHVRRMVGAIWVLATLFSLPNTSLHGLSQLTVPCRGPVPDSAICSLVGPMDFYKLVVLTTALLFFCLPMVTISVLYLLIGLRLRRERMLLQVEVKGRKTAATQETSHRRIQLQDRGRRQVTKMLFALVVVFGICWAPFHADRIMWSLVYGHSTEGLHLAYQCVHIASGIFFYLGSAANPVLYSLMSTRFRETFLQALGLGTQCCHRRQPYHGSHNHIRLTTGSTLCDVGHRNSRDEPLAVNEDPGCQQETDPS
Description: cell-based or functional assay.

The target of assay [5] is T1, human NMUR2. Description: 125I-hNMU-25 displacement, cell membranes.
Another assay addresses T5, rat NMUR1-ATG (rat, UniProt Q9JJI5 1-425).
T5 construct: whole, on cells; Cell line with engineered ATG start codon in place of the genomic TTG; also called rat R1-ATG
T5 sequence (looked up): T3 sequence (looked up)
The assay is described as follows: 125I-hNMU-25 displacement, cell membranes.

The next assay has as its target T6, mouse NMUR1-CTG (mouse, UniProt O55040 1-428).
T6 construct: whole, on cells; Cell line with the start codon (CTG) as predicted from genomic databases; also called mouse R1-CTG
T6 sequence (looked up): T4 sequence (looked up)
The assay is described as follows: 125I-hNMU-25 displacement, cell membranes.

The target of assay [6] is T2, human NMUR1. The assay is described as follows: 125I-hNMU-25 displacement, cell membranes.
The target in assay [7] is T3, rat NMUR1-TTG. The assay is described as follows: 125I-hNMU-25 displacement, cell membranes.
In another assay the target is T7, rat NMUR2 (rat, UniProt Q9ESQ4 1-395).
T7 construct: whole, on cells; also called rat R2
T7 sequence (Q9ESQ4 whole entry): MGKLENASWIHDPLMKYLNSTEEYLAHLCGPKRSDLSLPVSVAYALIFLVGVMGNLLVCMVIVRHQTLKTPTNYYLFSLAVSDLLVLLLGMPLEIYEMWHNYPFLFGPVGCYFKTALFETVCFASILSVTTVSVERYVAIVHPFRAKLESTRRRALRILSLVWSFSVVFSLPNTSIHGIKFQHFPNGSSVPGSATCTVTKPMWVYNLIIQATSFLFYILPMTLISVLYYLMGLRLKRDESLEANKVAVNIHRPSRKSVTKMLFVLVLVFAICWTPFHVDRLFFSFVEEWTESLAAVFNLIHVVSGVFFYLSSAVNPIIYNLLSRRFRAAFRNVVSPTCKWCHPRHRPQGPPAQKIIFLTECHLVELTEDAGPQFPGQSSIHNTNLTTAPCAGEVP
Description: 125I-hNMU-25 displacement, cell membranes.

Assay [8] has as its target T4, mouse NMUR1-ATG. Description: 125I-hNMU-25 displacement, cell membranes.
For the next assay, the target named is T8, mouse NMUR2 (mouse, UniProt Q8BZ39 1-395).
T8 construct: whole, on cells; also called mouse R2
T8 sequence (Q8BZ39 whole entry): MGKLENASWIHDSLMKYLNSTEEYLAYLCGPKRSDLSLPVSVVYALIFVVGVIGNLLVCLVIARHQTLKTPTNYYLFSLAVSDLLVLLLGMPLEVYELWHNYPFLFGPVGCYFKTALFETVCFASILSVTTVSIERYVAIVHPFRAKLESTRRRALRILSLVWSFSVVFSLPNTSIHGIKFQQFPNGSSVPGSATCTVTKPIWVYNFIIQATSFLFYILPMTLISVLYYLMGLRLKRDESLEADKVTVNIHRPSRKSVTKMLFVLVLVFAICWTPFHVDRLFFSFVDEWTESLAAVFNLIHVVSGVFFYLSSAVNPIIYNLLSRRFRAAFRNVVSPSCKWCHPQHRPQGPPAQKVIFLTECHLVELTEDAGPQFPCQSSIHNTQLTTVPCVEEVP
Description: 125I-hNMU-25 displacement, cell membranes.

Consider 1 molecule from patent US20070244048A1 (published 2007).

No end group written: not given here.

T1 sequence (Q9GZQ4 whole entry): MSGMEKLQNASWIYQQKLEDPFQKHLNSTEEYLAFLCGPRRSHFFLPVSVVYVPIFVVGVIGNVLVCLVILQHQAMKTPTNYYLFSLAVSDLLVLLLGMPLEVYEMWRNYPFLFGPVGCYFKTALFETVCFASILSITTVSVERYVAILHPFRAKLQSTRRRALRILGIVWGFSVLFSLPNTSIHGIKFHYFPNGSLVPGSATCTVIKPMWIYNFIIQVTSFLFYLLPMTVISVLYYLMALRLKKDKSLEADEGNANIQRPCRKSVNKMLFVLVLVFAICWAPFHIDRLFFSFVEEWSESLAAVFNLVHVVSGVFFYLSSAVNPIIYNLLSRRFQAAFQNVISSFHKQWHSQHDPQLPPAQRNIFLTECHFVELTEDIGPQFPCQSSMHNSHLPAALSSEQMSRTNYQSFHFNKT

For FRVDEEFQSPFASQSRGYFLFRPRN-NH2 (also called hNMU-25; native hNMU) [human NMU-25], the “% activity” value with human NMUR2 [1] and with human NMUR1 [2] was 100% in each case. In addition, the figures for the “EC50” value with human NMUR2 [1] and in the assay with human NMUR1 [2] were 1.5 nM and 5.5 nM, respectively. Moreover, the “IC50 (nM), functional” value was found to be 1 nM with rat NMUR1-TTG [3] and 0.9 nM with mouse NMUR1-ATG [4]. Moreover, the 50% inhibitory concentration (IC50) (commonly the concentration at which inhibition is half-maximal) is 0.056 nM with human NMUR2 [5]; 1.2 nM in the assay with rat NMUR1-ATG; 0.15 nM in the assay with mouse NMUR1-CTG; 0.14 nM with human NMUR1 [6]; 0.2 nM in the assay with rat NMUR1-TTG [7]; 0.6 nM with rat NMUR2. Besides, the IC50 is 0.4 nM with mouse NMUR1-ATG [8] and 0.2 nM with mouse NMUR2.
